Five molecules from US20210198341A1 (published 2021) can be followed below.

Positions count from the first letter of the chain named.

Holding throughout (test): cytokine release
In assay [1] the target is T1, HPV18-E7 peptide on HLA-DPA1*02:02 / HLA-DPB1*05:01 (human).
T1 peptide: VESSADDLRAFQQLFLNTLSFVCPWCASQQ

In assay [2] the target is T2, HPV18-E7 peptide on HLA-DPA1*01:03 / HLA-DPB1*02:01 (human).
T2 peptide: T1 peptide

For assay [3], the target named is T3, RGS5 peptide on HLA-DRA / HLA-DRB1*09:01 (human).
T3 peptide: AKEIKIKLGILLQKP

Assay [4] deals with T4, RGS5 peptide on HLA-DRA / HLA-DRB4*01:03 (human).
T4 peptide: AKEIKIKLGILLQKP

Assay [5] deals with T5, HPV18-E7 peptide on HLA-DRA / HLA-DRB4*01:03 (human).
T5 peptide: RAFQQLFLNTLSFVCPWCA

Assay [6] deals with T6, HPV18-E7 peptide on HLA-DRA / HLA-DRB1*09:01 (human).
T6 peptide: RAFQQLFLNTLSFVCPWCA

Assay [7] addresses T7, RGS5 peptide on HLA-DRA / HLA-DRB1*09:01 (human).
T7 peptide: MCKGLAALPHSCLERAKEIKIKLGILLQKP

Assay [8] deals with T8, RGS5 peptide on HLA-DRA / HLA-DRB4*01:03 (human).
T8 peptide: T7 peptide

B1: 33D05 (TCR, V domains shown)
Valpha: AQSVTQLDSHVSVSEGTPVLLRCNYSSSYSPSLFWYVQHPNKGLQLLLKYTSAATLVKGINGFEAEFKKSETSFHLTKPSAHMSDAAEYFCVVSAIGYSSASKIIFGSGTRLSIRP
Vbeta: DTGVSQNPRHKITKRGQNVTFRCDPISEHNRLYWYRQTLGQGPEFLTYFQNEAQLEKSRLLSDRFSAERPKGSFSTLEIQRTEQGDSAMYLCASSLVAGGPAETQYFGPGTRLLVL
Consider B1, for which the binding result in assay [1] and in assay [2] was “recognises” each time.

B2: 09D01 (TCR, V domains shown)
Valpha: RKEVEQDPGPFNVPEGATVAFNCTYSNSASQSFFWYRQDCRKEPKLLMSVYSSGNEDGRFTAQLNRASQYISLLIRDSKLSDSATYLCVVNMRDSSYKLIFGSGTRLLVRP
Vbeta: GAVVSQHPSRVICKSGTSVKIECRSLDFQATTMFWYRQFPKKSLMLMATSNEGSKATYEQGVEKDKFLINHASLTLSTLTVTSAHPEDSSFYICSAHERITDTQYFGPGTRLTVL
B2: the binding result in assay [3] and in assay [4] was “recognises” in each case.

B3: 09H05 (TCR, V domains shown)
Valpha: B2 Valpha with R93K
Vbeta: GAVVSQHPSRVICKSGTSVKIECRSLDFQATTMFWYRQFPKKSLMLMATSNEGSKATYEQGVEKDKFLINHASLTLSTLTVTSAHPEDSSFYICSALEGTSGKETQYFGPGTRLLVL
As for B3, the binding result in assay [3] and in assay [4] was “recognises” in each case.

B4: 10F04 (TCR, V domains shown)
Valpha: QKEVEQDPGPLSVPEGAIVSLNCTYSNSAFQYFMWYRQYSRKGPELLMYTYSSGNKEDGRFTAQVDKSSKYISLFIRDSQPSDSATYLCAMSPRSGYALNFGKGTSLLVTP
Vbeta: DGGITQSPKYLFRKEGQNVTLSCEQNLNHDAMYWYRQDPGQGLRLIYYSQIVNDFQKGDIAEGYSVSREKKESFPLTVTSAQKNPTAFYLCASSMDAALGEKLFFGSGTQLSVL
Consider B4, for which the binding result in assay [5] and in assay [6] was “recognises” in each case.

B5: 09E01 (TCR, V domains shown)
Valpha: GQQVMQIPQYQHVQEGEDFTTYCNSSTTLSNIQWYKQRPGGHPVFLIQLVKSGEVKKQKRLTFQFGEAKKNSSLHITATQTTDVGTYFCAGPGNQFYFGTGTSLTVIP
Vbeta: NAGVTQTPKFQVLKTGQSMTLQCAQDMNHEYMSWYRQDPGMGLRLIHYSVGAGITDQGEVPNGYNVSRSTTEDFPLRLLSAAPSQTSVYFCASSSWDRDQPQHFGDGTRLSIL
On to B5, for which the binding result in assay [7] and in assay [8] was “recognises” each time.
